# Data published in patent US20250236657A1 (TOSOH, published 2025).
# Substitutions are numbered along the chain they refer to.
# B1: AVR10s_A330C (receptor)
# chain: MGSAGESDQITLPKNEVQLNCYVLQEPPKGETSTYDWQLITHPRDYSGEMEGEHSQILKLSNLTPGLYEFKAVVEGQNAHSEGYVNVTVEPEPRKNRPPIAIVSPQFQEISLPTTSTVIDGSQSTDDDKIVQYHWEELKGPLREEKISEDTAILKLSKLVPGNYTFRLTVVDSDGATDSTTANLTVNKAVDHHHHHH
# B2: AVR10s_I349N (receptor)
# chain: B1 chain with C21A, I40N
# B3: AVR10s_L333C (receptor)
# chain: B1 chain with C21A, L24C
# B4: AVR10s_A330Y (receptor)
# chain: B1 chain with C21Y
# B5: AVR10s_V332Y (receptor)
# chain: B1 chain with C21A, V23Y
# B6: AVR10s_Y331C (receptor)
# chain: B1 chain with C21A, Y22C
# B7: AVR10s_L348C (receptor)
# chain: B1 chain with C21A, L39C
# B8: AVR10s_Q347S (receptor)
# chain: B1 chain with C21A, Q38S
# B9: AVR10s_A330L (receptor)
# chain: B1 chain with C21L
# B10: AVR10s_A330R (receptor)
# chain: B1 chain with C21R
# B11: AVR10s_A330V (receptor)
# chain: B1 chain with C21V
# B12: AVR10s_A330F (receptor)
# chain: B1 chain with C21F
# B13: AVR10s_A330W (receptor)
# chain: B1 chain with C21W
# B14: AVR10s_V332W (receptor)
# chain: B1 chain with C21A, V23W
# B15: AAV-binding protein AVR10s (polypeptide of SEQ ID NO: 4, with polyhistidine tag) (receptor)
# chain: B1 chain with C21A
# B16: AAV-binding protein AVR21 with cysteine tag (SEQ ID NO: 102), immobilised as AVR21 immobilization gel (receptor)
# chain: MGSAGESDQITLPKHEAQLNVYVLLVPPKGEASTYDWQLITHPRDYSGEMEGEHSQILKLSNLTPGLYEYRAVVEGQNAHSEGYVNVTVEPEPRKNRPPIAIVSPQFQEISLPTTSTVIDGSQSTDDDKIVQYHWEELKGPLREEKISEDTAILKLSQLVPGNYTFRLTVVDTDGATDSTTADLTVNKAVDHHHHHHCRNDTCG
# modifications: immobilised on a TOYOPEARL carrier with iodoacetamide groups; cysteine tag sequence serving as immobilization tag at positions 220-226
# notes: KIAA0319L PKD1 and PKD2 with 21 substitutions; also called AVR21 column
# Target: AAV vector (AAV5-EGFP), adeno-associated virus serotype 5 (adeno-associated virus serotype 5 (AAV5))
# Experiment: ELISA, AAV5-EGFP coated, culture supernatant, anti-6His, A450
row,Binder,Binding activity for AAV5 (vs AVR10s) (ratio (AVR10s = 1))
1,B1,1.94
2,B2,1.13
3,B3,1.51
4,B4,2.19
5,B5,1.5
6,B6,1.3
7,B7,1.19
8,B8,1.73
9,B9,1.53
10,B10,1.5
11,B11,1.83
12,B12,1.68
13,B13,1.46
14,B14,3.87

# Target: AAV vector (AAV5-EGFP), adeno-associated virus serotype 5 (adeno-associated virus serotype 5 (AAV5))
# Experiment: ELISA, AAV5-EGFP coated, culture supernatant, anti-6His, A450; the reference itself
row,Binder,Binding activity for AAV5 (vs AVR10s) (ratio (AVR10s = 1))
1,B15,1

# Target: T1, AAV2 G383A (adeno-associated virus serotype 2 (AAV2), UniProt P03135 1-735)
# T1 construct: Recombinant AAV2 vector particles in filtered cell lysate
# Experiment: affinity HPLC on AVR21 column, pH gradient 6.0 to 2.0; no elution peak, not adsorbed and passed through
row,Binder,binding result
1,B16,no binding

# Target: T2, AAV2 H271F (adeno-associated virus serotype 2 (AAV2), UniProt P03135 1-735)
# T2 construct: Recombinant AAV2 vector particles in filtered cell lysate
# Experiment: as above
row,Binder,binding result
1,B16,no binding

# Target: T3, AAV2 D529A (adeno-associated virus serotype 2 (AAV2), UniProt P03135 1-735)
# T3 construct: Recombinant AAV2 vector particles in filtered cell lysate
# Experiment: as above
row,Binder,binding result
1,B16,no binding
